In IntAct's records for PubMed 29039417:

B1: Isoform 2 of Bardet-Biedl syndrome 7 protein (Homo sapiens), Q8IWZ6-2 (parent)
chain: MDLILNRMDYLQVGVTSQKTMKLIPASRHRATQKVVIGDHDGVVMCFGMKKGEAAAVFKTLPGPKIARLELGGVINTPQEKIFIAAASEIRGFTKRGKQFLSFETNLTESIKAMHISGSDLFLSASYIYNHYCDCKDQHYYLSGDKINDVICLPVERLSRITPVLACQDRVLRVLQGSDVMYAVEVPGPPTVLALHNGNGGDSGEDLLFGTSDGKLALIQITTSKPVRKWEIQNEKKRGGILCIDSFDIVGDGVKDLLVGRDDGMVEVYSFDNANEPVLRFDQMLSESVTSIQGGCVGKDSYDEIVVSTYSGWVTGLTTEPIHKESGPGEELKINQEMQNKISSLRNELEHLQYKVLQERENYQQSSQSSKAKSAVPSFGINDKFTLNKDDASYSLILEVQTAIDNVLIQSDVPIDLLDVDKNSAVVSFSSCDSESNDNFLLATYRCQADTTRLELKIRSIEGQYGTLQAYVTPRIQPKTCQVRQYHIKPLSLHQRTHFIDHDRPMNTLTLTGQFSFAEVHSWVVFCLPEVPEKPPAGECVTFYFQNTFLDTQLESTYRKGEGVFKSDNISTISILKDVLSKEATKRKINLNISYEINEVSVKHTLKLIHPKLEYQLLLAKKVQLIDALKELQIHEGNTNFLIPEYHCILEEADHLQEEYKKQPAHLERLYG
partner: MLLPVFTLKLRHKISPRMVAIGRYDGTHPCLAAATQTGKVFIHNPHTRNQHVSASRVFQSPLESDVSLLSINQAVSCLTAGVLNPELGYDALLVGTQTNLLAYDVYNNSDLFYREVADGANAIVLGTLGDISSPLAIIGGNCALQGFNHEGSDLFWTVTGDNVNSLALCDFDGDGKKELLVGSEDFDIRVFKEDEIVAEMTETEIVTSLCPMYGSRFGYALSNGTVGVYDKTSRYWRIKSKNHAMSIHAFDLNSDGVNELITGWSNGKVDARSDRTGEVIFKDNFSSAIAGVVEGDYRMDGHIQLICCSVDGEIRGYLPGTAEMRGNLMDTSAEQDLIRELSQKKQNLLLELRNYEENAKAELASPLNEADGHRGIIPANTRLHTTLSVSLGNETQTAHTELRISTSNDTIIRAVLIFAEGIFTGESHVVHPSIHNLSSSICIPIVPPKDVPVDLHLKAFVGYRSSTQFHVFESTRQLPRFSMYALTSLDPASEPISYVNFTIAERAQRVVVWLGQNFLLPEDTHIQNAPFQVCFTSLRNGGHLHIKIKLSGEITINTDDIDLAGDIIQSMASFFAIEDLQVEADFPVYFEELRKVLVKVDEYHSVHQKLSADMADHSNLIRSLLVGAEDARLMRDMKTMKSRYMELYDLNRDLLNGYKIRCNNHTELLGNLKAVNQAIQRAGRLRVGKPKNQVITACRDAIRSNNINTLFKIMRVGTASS

Variants of: B1
Details: with bbs2_human BBS2, Q9BXC9

Variant | effect of a mutation on the interaction
P505E | with no effect
P505A | with no effect
P505K | with no effect
Y471E | with no effect
Y471A | with no effect
Y471K | with no effect
K489E | with no effect
K489A | with no effect
H494A | with no effect
H494E | with no effect
H494K | with no effect
H502E | with no effect
H502K | with no effect
H502A | with no effect
Q464A | with no effect
Q464E | with no effect
Q464K | with no effect
Q485A | with no effect
Q485E | with no effect
Q485L | disrupting interaction strength
Q485N | disrupting interaction strength
Q485K | with no effect

Variant | effect of a mutation on the interaction
Q485R | disrupting interaction strength
G466E | disrupting interaction strength
G466Y | disrupting interaction strength
G466A | with no effect
G466D | disrupting interaction strength
G466K | with no effect
S492K | with no effect
S492A | with no effect
S492E | with no effect
L456A | with no effect
L456K | with no effect
L456E | with no effect
R504E | with no effect
R504A | with no effect
R504K | with no effect
V483E | with no effect
V483A | with no effect
V483I | disrupting interaction strength
V483K | with no effect
I476K | with no effect
I476A | disrupting interaction strength
I476E | with no effect

Variant | effect of a mutation on the interaction
V472K | with no effect
V472E | disrupting interaction strength
V472M | disrupting interaction strength
V472A | with no effect
R459E | with no effect
R459A | with no effect
R459K | with no effect
K457E | with no effect
K457A | with no effect
I458A | disrupting interaction strength
I458E | disrupting interaction strength
I458Q | disrupting interaction strength
I458K | disrupting interaction strength
R475E | with no effect
R475K | with no effect
R475A | disrupting interaction strength
Q495E | with no effect
Q495A | with no effect
Q495K | with no effect
F499A | with no effect
F499S | disrupting interaction strength
F499K | with no effect

Variant | effect of a mutation on the interaction
F499E | with no effect
L468K | with no effect
L468E | with no effect
L468P | disrupting interaction strength
L468A | with no effect
M506A | with no effect
R496A | with no effect
R496K | with no effect
R496E | with no effect
I500K | with no effect
I500A | with no effect
I500E | with no effect
S460A | with no effect
S460K | with no effect
S460E | with no effect
D503A | with no effect
D503E | with no effect
D503K | with no effect
Y465K | with no effect
Y465E | with no effect

Variants of: B1
Details: with bbs2_human BBS2, Q9BXC9
Remark: another data set of the same source

Variant | effect of a mutation on the interaction
I458E | with no effect
